Source: article PMC6170153, “Structures reveal opening of the store-operated calcium channel Orai” (eLife, 2018)
Positions count from the first letter of the chain named. In names and notes the source's numbering stands.

Columns and labels:
[1] = target: the molecule itself; assay: crystal structure; H206A Orai_(cryst), space group I4_(1), 6.7 Å, 24 subunits (four channels) in the asymmetric unit, 24-fold NCS averaging; crystals grown in 36-38% PEG400, 500 mM NaCl, 100 mM Tris-HCl pH 9.0
[2] = target: the molecule itself; assay: crystal structure; K163W Orai_(cryst), space group I4_(1), 6.1 Å, MIRAS, 24-fold NCS averaging; crystals grown in 26-28% PEG 400, 150 mM NaCl, 100 mM HEPES pH 7.5
[3] = target: the molecule itself; assay: crystal structure; WT Orai_(cryst), space group I4_(1), 6.9 Å, MR-SAD, 24-fold NCS averaging; crystals grown in 32-35% PEG 400, 0.1 M potassium phosphate pH 7.5

B1: H206A Orai_(cryst) (natural protein, Drosophila melanogaster, UniProt Q9U6B8 133-341, looked up)
chain: MSQSGEDLHSPTYLSWRKLQLSRAKLKASSKTSALLSGFAMVAMVEVQLDHDTNVPPGMLIAFAICTTLLVAVAMLALMISTCILPNIETVSNLHSISLVHESPHERLHWYIETAWAFSTLLGLILFLLEIAILCWVKFYDLSPPAAWSATVVLIPVMIIFMAFAIHFYRSLVSHKYEVTVSGIRELEMLKEQMEQDHLEHHNNIRNNG
notes: Hexameric channel; The model holds residues 148-327 without 181-191 and 220-239; also called open conformation
[1]
  stoichiometry N: 6

B2: K163W Orai_(cryst) (natural protein, Drosophila melanogaster, UniProt Q9U6B8 133-341, looked up)
chain: B1 chain with K31W, A74H
notes: Hexameric channel, solved in two crystal forms (I4_(1) and P4_(2)2_(1)2); also called K163W mutant
[2]
  stoichiometry N: 6

B3: WT Orai_(cryst) (natural protein, Drosophila melanogaster, UniProt Q9U6B8 133-341, looked up)
chain: B1 chain with A74H
notes: Drosophila melanogaster Orai, amino acids 133-341, with C224S and C283T (made to improve stability); wild-type Pro276 and Pro277; 24 subunits in four channels in the asymmetric unit (24-fold NCS), which makes six a channel; The model holds residues 148-327 without 181-191 and 220-239; also called wild-type (WT) Orai_(cryst); unlatched-closed conformation
[3]
  binding result: binds
